According to the Human Domainome abundance scans (Beltran et al. 2025):

B1: Chromodomain-helicase-DNA-binding protein 4, residues 365 to 417; numbered along this chain, Q14839 (parent)
chain: YETDHQDYCEVCQQGGEIILCDTCPRAYHMVCLDPDMEKAPEGKWSCPHCEKE

Variants of: B1
Experiment: abundance fitness (aPCA) (normalised: wild type 0, dead -1); higher = more abundant; growth selection in yeast, the domain comes from the species named
Conditions: Homo sapiens

Abundance fitness of substitutions, site by site:
R26: P -0.348, V -0.226, S -0.134, T -0.191, M 0.183, F -0.288, G -0.112, W -0.791, E -0.356, I -0.014, C -0.462, D -0.249, L -0.231, H -0.273, Y -0.413, A -0.137, K -0.065
L20: T 0.036, V -0.028, Q -0.022, W -0.146, M -0.011, N -0.083, F -0.096, Y -0.179, S -0.013, H 0.143, E 0.01, A 0.08, I 0.023, P 0.149, R 0.113, C -0.045, D 0.178
C24: D -0.647, I -1.18, S -0.681, R -0.775, F -0.882, L -1.19, T -0.768, Y -1.31, G -0.695, M -0.751, V -0.99, Q -1.15, N -0.401, A -1.1, E -0.822, W -0.901, P -0.652
Q14: Y -0.338, L -0.347, E 0.223, S -0.239, W -0.342, F 0.06, R 0.162, G -0.013, I -0.084, A -0.307, P -0.826, K 0.002, H -0.23, N -0.362, C -0.337
Y28: T -0.284, F 0.012, W 0.086, Q -0.395, H 0.023, V -0.05, K -0.267, R -0.254, D -0.526, S -0.271, M 0.048, P -0.704, I -0.295, E -0.649, C -0.582, N -0.403, L -0.073
C21: K -0.734, E -0.893, A -0.882, T -0.467, D -0.657, V -0.877, N -0.983, R -0.743, Q -0.468, F -1.11, Y -0.765, M -0.911, P -1.11, W -0.738, I -0.802, S -0.889, L -1.06
V31: I -0.234, C 0.138, Y 0.112, W -0.236, P 0, S 0.044, K 0.027, T -0.431, L 0.258, G -0.017, M -0.417, R -0.032, E -0.089, H 0.104, D -0.005, A 0.121, N 0.113, Q -0.1, F -0.031
G16: H -0.12, Y -0.262, E 0.12, D 0.29, P -0.347, N 0.144, R 0.009, F -0.469, S 0.069, L -0.016, C -0.32, K 0.026, V -0.341, I -0.08, Q 0.036, T 0.242, A -0.114, M -0.095
I19: K 0.127, S -0.143, G -0.137, M 0.277, Q -0.124, E -0.07, R 0.022, L -0.145, Y -0.629, F -0.404, A 0.085, D -0.154, P -0.849, T -0.101, C -0.25, W -0.199, N -0.097
H29: F -1.05, P -1.1, K -0.943, G -0.698, A -0.967, Y -0.841, V -1.15, C 0.028, T -0.79, N -0.491, W -0.999, Q -0.746, E -0.951, M -0.686, D -0.306, S -0.477, L -1.04, I -1.17
I18: E 0.046, C -0.216, H -0.408, R -0.06, W -0.218, K -0.305, G -0.042, F 0.158, P -0.369, Y -0.231, T 0.221, A -0.123, S -0.081, M 0.022, V -0.161, D -0.058, Q -0.14
L33: A 0.123, C 0.026
D22: F -0.129, I 0.03, G -0.021, P -0.721, V -0.065, L -0.34, Q 0.083, Y -0.42, S -0.272, T 0.089, H -0.528, A 0.056, W -0.219, N -0.101
C32: E -0.504, V -0.63, L -0.776, S -0.952, F -1.02, W -0.936, N -1.04, H -0.072, A -0.737, P -0.794, M -0.687, D -0.486, T -0.94, I -0.916, Y -1, K -0.817, Q -1.08, G -0.967
T23: P -0.922, S 0.033, R -0.363, A -0.459, C -0.257, K -0.219, V -0.231, F -0.099, I -0.236, D -0.052, G -0.189, W -0.327, Q -0.107, M -0.297, N -0.201, Y -0.296, L -0.107, H 0.312
Q13: T -0.015, N 0.255, Y -0.117, P -0.702, W -0.255, V -0.018, S 0.008
P25: I -0.057, N 0.185, M -0.194, A -0.243, Y -0.135, T -0.192, Q -0.058, S 0.068, C 0.034, G -0.044, H -0.485, R -0.054, L -0.044, E 0.198, V -0.241, D -0.276, F 0.079, W -0.27, K -0.274
G15: I -0.664, W -0.216, T -0.003, K -0.033, R 0.075, S -0.013, L -0.052, M -0.028, Q -0.046, C -0.524, Y -0.571, P -0.136, E -0.162, F -0.178, A -0.028, D 0.176, N -0.328
A27: C -0.02, H -0.276, Q -0.424, F -0.172, V -0.077, G -0.162, I -0.421, K -0.238, D -0.545, S -0.088, T -0.094, P -0.262, N -0.165, E -0.672, Y 0.086, L -0.15, W -0.257
E17: H -0.11, Y -0.055, I -0.199, V -0.076, A -0.149, L -0.322, W -0.412, M -0.149, T -0.033, N 0.115, K -0.153, G -0.171, F -0.222, D -0.109, S -0.033, R -0.115, C -0.308, Q -0.135
M30: V -0.137, L -0.149, G -0.126, T 0.077, K 0.115, E 0.075, F -0.19, I -0.02, D -0.272, Q -0.287, A -0.064, W -0.119, R -0.266, H -0.433, S -0.228
